Results from paper PMC5024704.

Key:
[1] = molecular target: SgcC FADH2-dependent monooxygenase (Streptomyces globisporus); test: SEC
[2] = molecular target: SgcE6 flavin reductase (Streptomyces globisporus); test: SEC

Row | stoichiometry N [1] | stoichiometry N [2] | Substance
1 | 4 |  | SgcC FADH2-dependent monooxygenase (enzyme)
2 |  | 2 | SgcE6 flavin reductase (enzyme)
